In publication PMC9122904, “Insights into the client protein release mechanism of the ATP-independent chaperone Spy” (Nature Communications, 2022):

Legend:
Experiment in all cases: BLI; Octet RED96; client biotinylated and loaded on streptavidin sensors; Spy or Spy variant in solution at 0.25, 0.5, 1, 1.5 and 2 μM; 40 mM HEPES, 150 mM NaCl, pH 7.5; Kd calculated as koff/kon
Conditions in all cases: both partners purified
[1] = target: T1, Spy wild type (Spy_(1-138)) (UniProt P77754 24-161)
T1 construct: Spy, ATP-independent periplasmic chaperone; also called WT; wt; source: E. coli BL21 (DE3), purified (Ni-NTA, cation exchange, SEC); not shown: His6, N-terminal, cleaved; SUMO, N-terminal, cleaved
T1 sequence (looked up): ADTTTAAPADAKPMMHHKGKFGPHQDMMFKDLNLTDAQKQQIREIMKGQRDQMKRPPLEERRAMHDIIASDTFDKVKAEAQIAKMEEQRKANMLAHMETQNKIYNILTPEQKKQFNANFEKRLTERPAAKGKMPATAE
Summary of the method: (§1)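 Client proteins were biotinylated with EZ-link NHS-biotin at a 1:1 molar ratio, loaded onto streptavidin sensors, and measured by biolayer interferometry on an Octet RED96. The loaded sensors were dipped into 40 mM HEPES, 150 mM NaCl, pH 7.5 holding the analyte protein at 0.25, 0.5, 1, 1.5 or 2 μM, then moved to buffer without it. Fitting the wavelength-shift association and dissociation curves in SigmaPlot 12.0 gave the observed association rate and koff, kon was taken from the observed rate plotted against analyte concentration, and Kd was calculated as koff/kon.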

Spy_(27-127) = target: T2, Spy_(27-127) (UniProt P77754 50-150)
T2 construct: Spy chaperone, residues 27-127; source: E. coli BL21 (DE3), purified (Ni-NTA, cation exchange, SEC); not shown: His6, N-terminal, cleaved; SUMO, N-terminal, cleaved
T2 sequence (looked up): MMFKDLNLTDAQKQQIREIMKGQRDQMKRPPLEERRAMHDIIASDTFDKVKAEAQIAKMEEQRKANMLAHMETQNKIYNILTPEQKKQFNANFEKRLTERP
Summary of the method: as §1

Spy_(29-138) = target: T3, Spy_(29-138) (UniProt P77754 52-161)
T3 construct: source: E. coli BL21 (DE3), purified (Ni-NTA, cation exchange, SEC); not shown: His6, N-terminal, cleaved; SUMO, N-terminal, cleaved
T3 sequence (looked up): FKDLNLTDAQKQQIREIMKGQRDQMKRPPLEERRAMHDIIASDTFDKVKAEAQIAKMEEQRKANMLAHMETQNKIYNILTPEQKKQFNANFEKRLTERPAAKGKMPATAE
Summary of the method: as §1

Spy_(29-127) = target: T4, Spy_(29-127) (UniProt P77754 52-150)
T4 construct: Spy chaperone, residues 29-127; source: E. coli BL21 (DE3), purified (Ni-NTA, cation exchange, SEC); not shown: His6, N-terminal, cleaved; SUMO, N-terminal, cleaved
T4 sequence (looked up): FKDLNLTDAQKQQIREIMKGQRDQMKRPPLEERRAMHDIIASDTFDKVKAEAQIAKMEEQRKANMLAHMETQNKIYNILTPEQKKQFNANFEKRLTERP
Summary of the method: as §1

Spy_(29-124) = target: T5, Spy_(29-124) (UniProt P77754 52-147)
T5 construct: also called termini-free Spy; source: E. coli BL21 (DE3), purified (Ni-NTA, cation exchange, SEC); not shown: His6, N-terminal, cleaved; SUMO, N-terminal, cleaved
T5 sequence (looked up): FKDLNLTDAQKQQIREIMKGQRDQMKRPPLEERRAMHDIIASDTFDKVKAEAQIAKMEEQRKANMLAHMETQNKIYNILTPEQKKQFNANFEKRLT
Summary of the method: as §1

Spy_(21-130) = target: T6, Spy_(21-130) (UniProt P77754 44-153)
T6 construct: Spy chaperone, residues 21-130; source: E. coli BL21 (DE3), purified (Ni-NTA, cation exchange, SEC); not shown: His6, N-terminal, cleaved; SUMO, N-terminal, cleaved
T6 sequence (looked up): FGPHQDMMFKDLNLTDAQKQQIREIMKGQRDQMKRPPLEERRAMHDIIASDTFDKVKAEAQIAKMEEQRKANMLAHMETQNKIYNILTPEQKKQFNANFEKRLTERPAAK
Summary of the method: as §1

Spy_(24-127) = target: T7, Spy_(24-127) (UniProt P77754 47-150)
T7 construct: Spy chaperone, residues 24-127; source: E. coli BL21 (DE3), purified (Ni-NTA, cation exchange, SEC); not shown: His6, N-terminal, cleaved; SUMO, N-terminal, cleaved
T7 sequence (looked up): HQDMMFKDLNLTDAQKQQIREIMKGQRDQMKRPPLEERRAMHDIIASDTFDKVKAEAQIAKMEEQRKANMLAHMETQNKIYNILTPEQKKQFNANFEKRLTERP
Summary of the method: as §1

B1: Im7 H40W L53A I54A (natural protein)
chain: MELKNSISDYTEAEFVQLLKEIEKENVAATDDVLDVLLEWFVKITEHPDGTDAAYYPSDNRDDSPEGIVKEIKEWRAANGKPGFKQG
modifications: biotin (EZ-link NHS-biotin, 1:1 molar ratio of biotin to protein)
notes: Im7 (colicin E7 immunity protein) with H40W L53A I54A; Spy was made with an N-terminal His6-SUMO tag that was cleaved; also called Im7AAW; partially folded client; source: purified by a similar procedure to Spy
Binder B1 has a kon [1] of 276000 M⁻¹ s⁻¹, a kon (Spy_(27-127)) of 312000 M⁻¹ s⁻¹ and a kon (Spy_(29-138)) of 286000 M⁻¹ s⁻¹. The kon (Spy_(29-127)) was 309000 M⁻¹ s⁻¹, the kon (Spy_(29-124)) was 273000 M⁻¹ s⁻¹ and the kon (Spy_(21-130)) was 187000 M⁻¹ s⁻¹. For the same binder, the kon (Spy_(24-127)) was 227000 M⁻¹ s⁻¹.
